According to PMC6117920, “Chitinase 3-like 1-CD44 interaction promotes metastasis and epithelial-to-mesenchymal transition through β-catenin/Erk/Akt signaling in gastric cancer” (Journal of Experimental & Clinical Cancer Research : CR, 2018):

What was measured:
[1] = target: T1, recombinant human IL-13Rα2 ECD (human, UniProt Q14627 27-343); test: BLI; Octet K2; CHI3L1 or IL-13Rα2 ECD immobilised on AR2G biosensor by amine coupling; CD44v3 peptide (15.6, 31.1, 62.5, 125, 250 μM) in the mobile phase; 20 mM HEPES, 150 mM NaCl, 0.05% Tween-20, 1 mM MgCl2 (or 5 mM EDTA); pH 7.4 in the results (pH 7.5 in the methods); heterogeneous ligand model; conditions: both partners purified
T1 construct: Interleukin-13 receptor alpha 2, human, extracellular domain; also called rhIL-13Rα2 ECD; Interleukin-13 receptor alpha 2; source: bought: Sino Biological (Cat. #10350-H08H-20)
T1 sequence (looked up): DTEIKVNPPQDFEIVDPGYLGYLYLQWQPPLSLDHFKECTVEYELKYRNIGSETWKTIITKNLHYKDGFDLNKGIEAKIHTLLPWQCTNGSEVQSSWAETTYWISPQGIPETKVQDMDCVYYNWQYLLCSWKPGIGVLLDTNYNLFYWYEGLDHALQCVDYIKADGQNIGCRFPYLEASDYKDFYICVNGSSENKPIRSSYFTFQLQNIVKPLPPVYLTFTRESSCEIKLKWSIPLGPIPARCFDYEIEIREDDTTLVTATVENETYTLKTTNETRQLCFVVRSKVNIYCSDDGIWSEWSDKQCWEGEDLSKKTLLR

recombinant human CHI3L1 = target: T2, recombinant human CHI3L1 (human, UniProt P36222 22-383); test: as above; conditions: both partners purified
T2 construct: Chitinase 3-like-1 (CHI3L1, YKL-40), human, recombinant; also called rhCHI3L1; RhCHI3L1; source: bought: R&D Systems (Cat. #2599-CH)
T2 sequence (P36222 22-383): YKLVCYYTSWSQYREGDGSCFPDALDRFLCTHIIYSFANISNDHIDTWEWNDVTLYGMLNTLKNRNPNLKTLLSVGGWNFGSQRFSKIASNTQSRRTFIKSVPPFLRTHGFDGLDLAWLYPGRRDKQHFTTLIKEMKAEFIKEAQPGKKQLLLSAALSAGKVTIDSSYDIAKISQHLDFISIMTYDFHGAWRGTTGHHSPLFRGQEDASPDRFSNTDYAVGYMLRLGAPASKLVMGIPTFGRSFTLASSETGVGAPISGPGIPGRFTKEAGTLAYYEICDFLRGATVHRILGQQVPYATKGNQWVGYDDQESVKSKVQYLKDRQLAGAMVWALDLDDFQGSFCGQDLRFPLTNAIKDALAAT

Kd [1]: 563 ± 15.9 µM
koff [1]: 0.0162 s⁻¹
kon [1]: 28.8 ± 7.66 M⁻¹ s⁻¹
Kd (recombinant human CHI3L1): 443 ± 21.4 µM
koff (recombinant human CHI3L1): 0.013 s⁻¹
kon (recombinant human CHI3L1): 29.4 ± 1.39 M⁻¹ s⁻¹
B1: CD44v3 peptide (peptide)
peptide: GWEPNEENEDERDRHLSFSGSGIDDDEDFISSTI
notes: peptide fragment of the v3 domain of CD44; contains the SGSG heparan sulfate assembly motif; also called peptide fragment of CD44v3 domain; source: synthetic peptide (ChinaPeptides Co., Ltd.)
